Experimental findings from patent US20170349647A1 are described below.

The target in assay [1] is recombinant nucleoprotein derived from influenza viruses subtype A H3N2 (Sino Biological, 40208-[change]) (influenza virus type A H3N2).
Assay [2] deals with recombinant nucleoprotein derived from influenza viruses subtype A H1N1 (Sino Biological, 11675-[change]) (influenza virus type A H1N1).
Sequence of recombinant nucleoprotein derived from influenza viruses subtype A H1N1 (Sino Biological, 11675-[change]) (influenza virus type A H1N1) (P03466 whole entry): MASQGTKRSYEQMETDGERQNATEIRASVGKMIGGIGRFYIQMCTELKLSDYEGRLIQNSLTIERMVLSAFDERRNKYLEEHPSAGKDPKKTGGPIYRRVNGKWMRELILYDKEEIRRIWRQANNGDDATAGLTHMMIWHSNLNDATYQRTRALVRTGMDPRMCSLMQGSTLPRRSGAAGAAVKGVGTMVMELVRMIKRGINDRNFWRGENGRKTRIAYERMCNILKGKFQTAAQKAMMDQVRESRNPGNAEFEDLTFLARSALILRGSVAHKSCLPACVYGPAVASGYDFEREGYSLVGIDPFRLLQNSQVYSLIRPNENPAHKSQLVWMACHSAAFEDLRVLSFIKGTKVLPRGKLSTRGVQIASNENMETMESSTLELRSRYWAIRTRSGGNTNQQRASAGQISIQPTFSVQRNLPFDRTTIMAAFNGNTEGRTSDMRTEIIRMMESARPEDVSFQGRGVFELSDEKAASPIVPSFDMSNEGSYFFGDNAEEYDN

B1: VHH antibody consisting of the amino acid sequence represented by SEQ ID NO: 08 (VHH)
VHH: QVQLVESGGGLVQAGGSLRLSCAASRTIFNPNVMGWYRQAPGKQRELVADISLSGSTNYADSVKGRFTISRDNAKNTMYLQMNSLKPEDTAVYYCNTNAISGAPGRYWGQGTQVTVSS
Broadly, the EC50 (read off the curve) is the concentration giving half of the maximal effect. As for B1, the EC50 (read off the curve) came out at 0.03 µg/mL in assay [1] and 4 ng/mL in assay [2].
